# Reference: publication doi:10.1101/2023.07.03.547485 (bioRxiv, 2023)
# T1: 6His-msfGFP-TEV-Mis18FL (S. pombe, UniProt Q9P802 1-194)
# T1 sequence (looked up): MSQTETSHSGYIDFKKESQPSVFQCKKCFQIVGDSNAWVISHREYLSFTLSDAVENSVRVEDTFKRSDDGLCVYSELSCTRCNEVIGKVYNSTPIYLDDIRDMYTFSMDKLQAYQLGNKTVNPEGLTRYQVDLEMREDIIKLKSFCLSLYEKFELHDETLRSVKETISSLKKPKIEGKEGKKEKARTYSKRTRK
# B1: 6His-MBP-Sad1(2-167) (domain or fragment, S. pombe, UniProt Q09825 2-167, looked up)
# chain: FTNTPVGGKRERQNGAHPAWSTLGANSAQIHQNTADLASKMHKLRYTKIRSPPTRVSIESITPKQRFPAPNFEQAYHSNIRYEQEESDNEEFENVVKNGHEASTNVFYESDGDDEEFVNEEYENSIDEESDDEGYSLNEDTTATNASFRYPMNQRSTRKSQFYSSK
# Molecular target: T1, 6His-msfGFP-TEV-Mis18FL
# Test: pull-down
binder,measurement,value
B1,binding result,binds
